Data reported in PMC7263589, “Integration of phage and yeast display platforms: A reliable and cost effective approach for binning of peptides as displayed on-phage” (PLoS ONE, 2020).
Bridge positions count the residues as written; N and C are the ends. Peptide text beside a SMILES is read from it.

Assays:
[1] = target: FGL-containing peptide phage (FGL Phage); test: flow cytometry on yeast-displayed IL-23, phage detected with anti-M13-AF647; conditions: n = 2; parent: est. 24; read off a plot
IL-23 = target: T1, IL-23 (Homo sapiens, UniProt P29460+Q9NPF7); test: SPR direct binding to captured IL-23-AVI (Biacore T200); conditions: IL-23-AVI captured on streptavidin chip, 25°C, 50 μl/min, 10 mM HEPES pH 7.5, 150 mM NaCl, 0.005% P20, 3% DMSO, 1:1 binding model, multi-cycle (single cycle kinetics for 23–652 and IL-23R), n = 1, 23–447 an estimate, read-out: ka
T1 construct: made in house
T1 sequence (Q9NPF7 20-189): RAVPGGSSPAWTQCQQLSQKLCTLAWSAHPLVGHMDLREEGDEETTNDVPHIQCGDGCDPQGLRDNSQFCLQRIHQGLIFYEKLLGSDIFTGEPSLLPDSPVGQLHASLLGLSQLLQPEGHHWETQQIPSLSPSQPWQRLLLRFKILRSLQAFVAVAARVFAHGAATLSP
T1 sequence (P29460 23-328): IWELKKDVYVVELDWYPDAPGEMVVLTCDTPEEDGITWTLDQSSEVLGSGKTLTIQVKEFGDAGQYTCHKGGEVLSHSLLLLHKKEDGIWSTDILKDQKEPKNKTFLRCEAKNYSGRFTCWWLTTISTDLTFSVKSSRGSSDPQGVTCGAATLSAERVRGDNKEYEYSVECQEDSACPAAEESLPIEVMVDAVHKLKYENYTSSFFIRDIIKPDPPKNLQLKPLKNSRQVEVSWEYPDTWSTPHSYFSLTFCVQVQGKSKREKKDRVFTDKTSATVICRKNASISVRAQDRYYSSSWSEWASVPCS
Description: SPR (Biacore T200, GE Healthcare) was used to determine binding constants of the peptides against IL-23 and their competitiveness to IL-23R. All SPR experiments were performed at 25°C with flow rate of 50 μl/min. Assay buffer used in direct binding experiment was 10 mM HEPES pH 7.5, 150 mM NaCl, 0.005% P20, and 3% DMSO. Assay buffer used in competition experiment was 10 mM HEPES pH 7.5, 150 mM NaCl, 0.005% P20, and 1% BSA. All peptides were reconstituted first in DMSO as 10 mM stocks and then diluted into assay buffer. The proteins used in direct binding and competition SPR are described in S1 Table in S1 File. For direct binding of peptides against IL-23, 2000–9000 RU of IL-23-AVI was captured to streptavidin sensor chips (GE Healthcare, Series S Sensor Chip SA, BR-1005-31). Dilution series with 3-fold increment were prepared for each peptide. Initially, all peptides were tested up to 30 μM. Concentration range for some were then lowered accordingly based on affinity or nuisance behavior at high concentrations. SPR “multi-cycle” type was used for peptides 23–644, 23–437, 23–441, 23–446, and 23–447. Each cycle consisted of 30s of analyte injection and then 60s of buffer flow to monitor dissociation. “Single cycle kinetics” (SCK) type was used for 23–652 due to their long dissociation half-lives. Each SCK cycle consisted of five 60s injections of sample in increasing concentration with a final 600s of dissociation. To study IL-23 and IL-23R interaction, 200–1000 RU of IL-23-AVI and IL-23R-Fc-AVI were captured to streptavidin sensor chip. Dilution series with 3-fold increment of IL-23R-FLAG-HIS and IL-23-HIS were run in SCK cycle type as described above except the final dissociation time were 60-300s. Sensorgrams from the entire titration series for each sample were fitted globally to extract binding kinetics and affinity using Biacore T200 Evaluation Software 2.0 (GE Healthcare) according to a 1:1 binding model. To identify IL-23 binders that can block receptor binding, a competition SPR was established. In each SPR cycle, fresh IL-23R was capture (<1000 RU) by injecting 10 μg/ml of IL-23R-Fc-AVI to a Protein-A flow cell at 10 μl/min flow rate for 30s. Analyte consisted of a mixture of 20 nM of IL-23 protein and a single concentration of peptide was then injected for 30s at 50 μl/min to observe IL-23 binding. Finally, the Protein-A surface was regenerated by 10 mM Glycine pH 1.5 for 30s at 30 μl/min. IL-23 at 20 nM without peptide, “IL-23 only”, was used as control to quantify IL-23 binding without blockage; while “cold” IL-23R was used as a positive control for blockage.

IL-23-AVI [2] = target: T2, IL-23-AVI (human, UniProt Q9NPF7 20-189; P29460 23-328); test: AlphaScreen or HTRF; TR-FRET; compounds pre-incubated with IL-23R-FLAG 1 h, then IL-23-AVI; Europium-streptavidin and anti-FLAG-allophycocyanin; 25 mM HEPES, 150 mM NaCl, 0.02% Tween 20, 0.1% BSA, pH 7.4, 1% DMSO; n = 1; conditions: both partners purified
T2 construct: IL-23 p19 subunit, human; IL-12/IL-23 p40 subunit, human; Captured on streptavidin chips and beads, so biotinylation of the Avi tag is implied; also called Avi-tagged IL-23; recombinant IL-23
T2 sequence (looked up) 1: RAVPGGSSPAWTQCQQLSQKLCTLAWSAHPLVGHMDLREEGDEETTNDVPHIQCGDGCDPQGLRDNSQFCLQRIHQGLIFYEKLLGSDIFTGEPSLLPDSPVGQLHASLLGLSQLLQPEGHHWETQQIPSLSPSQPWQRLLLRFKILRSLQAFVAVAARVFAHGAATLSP
T2 sequence (looked up) 2: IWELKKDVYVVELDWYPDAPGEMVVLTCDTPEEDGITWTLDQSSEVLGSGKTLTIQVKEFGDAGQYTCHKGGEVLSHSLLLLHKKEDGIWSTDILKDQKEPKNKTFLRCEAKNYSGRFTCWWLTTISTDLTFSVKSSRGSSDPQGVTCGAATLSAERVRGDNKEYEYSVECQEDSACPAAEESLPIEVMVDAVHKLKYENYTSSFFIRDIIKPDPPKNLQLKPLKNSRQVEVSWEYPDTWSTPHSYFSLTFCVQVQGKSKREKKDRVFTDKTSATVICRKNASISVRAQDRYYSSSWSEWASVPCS

IL-23-AVI [3] = target: T2, IL-23-AVI; test: SPR; Biacore T200, 25°C, 50 μl/min; 2000–9000 RU of IL-23-AVI captured to streptavidin chip, peptides as analyte (3-fold series, up to 30 μM); 10 mM HEPES pH 7.5, 150 mM NaCl, 0.005% P20, 3% DMSO; multi-cycle, single cycle kinetics for 23–652; 1:1 model; n = 1; conditions: both partners purified
IL-23-AVI [4] = target: T2, IL-23-AVI; test: AlphaScreen or HTRF; AlphaLISA; IL-23-AVI (1.5 nM) pre-incubated with peptide 30 min, then FLAG-tagged IL-23R (3 nM); streptavidin donor and anti-FLAG acceptor beads; 25 mM HEPES pH 7.4, 150 mM NaCl, 0.02% Tween 20, 0.1% BSA; room temperature; n = 1; conditions: both partners purified
[5] = target: T3, Fluorescently labeled IL-23R, Q5VWK5; test: flow cytometry on yeast-displayed IL-23; conditions: chain shown with the change; n = 1; parent: est. 1.05; read off a plot
T3 chain: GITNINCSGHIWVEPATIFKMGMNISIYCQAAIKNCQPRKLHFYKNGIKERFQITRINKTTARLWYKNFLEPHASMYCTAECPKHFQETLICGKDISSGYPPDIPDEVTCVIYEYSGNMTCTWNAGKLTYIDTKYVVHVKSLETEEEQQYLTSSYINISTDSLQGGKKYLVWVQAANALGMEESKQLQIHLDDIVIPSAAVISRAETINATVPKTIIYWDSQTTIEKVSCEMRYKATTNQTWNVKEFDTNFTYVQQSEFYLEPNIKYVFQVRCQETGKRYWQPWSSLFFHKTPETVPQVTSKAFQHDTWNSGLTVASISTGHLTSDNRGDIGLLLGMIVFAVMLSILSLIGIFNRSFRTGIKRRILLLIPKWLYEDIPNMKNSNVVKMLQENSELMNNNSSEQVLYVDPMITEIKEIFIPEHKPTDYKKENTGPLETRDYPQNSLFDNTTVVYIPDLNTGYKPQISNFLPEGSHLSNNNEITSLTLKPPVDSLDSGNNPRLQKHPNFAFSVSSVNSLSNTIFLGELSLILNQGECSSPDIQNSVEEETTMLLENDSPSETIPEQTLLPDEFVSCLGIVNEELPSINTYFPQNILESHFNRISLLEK

Molecule “wild-type IL-23 displayed on yeast (from UniProt Q9NPF7;P29460) W26A” has a response [1] of 1.1.

With CSCC[C@H](NC(=O)[C@H](CCC(N)=O)NC(=O)[C@@H]1CSSC[C@H](NC(=O)[C@H](Cc2ccccc2)NC(=O)[C@H](CO)NC(=O)[C@H](CCCCN)NC(=O)[C@@H](NC(=O)[C@H](CC(C)C)NC(=O)[C@@H](NC(=O)[C@@H](N)CC(=O)O)[C@@H](C)O)[C@@H](C)O)C(=O)N[C@@H](Cc2ccc(O)cc2)C(=O)N[C@@H](Cc2ccccc2)C(=O)NCC(=O)N[C@@H]([C@@H](C)O)C(=O)N[C@@H](Cc2c[nH]c3ccccc23)C(=O)N1)C(=O)N[C@@H](Cc1ccc(O)cc1)C(=O)NCC(=O)N[C@@H](CO)C(=O)N[C@H](C(=O)O)[C@@H](C)O [23–652] (H-DTLTKSFCYFGTWCQMYGST-OH; disulfide 8-14) the kon (IL-23) was 36600 M⁻¹ s⁻¹.

B1: peptide 23–446 (free, chemically synthesized) (peptide)
peptide: GLRERCVRNYGHEFCQNWYW
notes: selected from a peptide phage library against IL-23; Two cysteines; source: synthetic peptide (CPC Scientific)
For B1, the IC50 (IL-23-AVI [2]) was 590 nM, the Kd (IL-23-AVI [3]) was 22.3 nM and the koff (IL-23-AVI [3]) was 0.0863 s⁻¹. The kon (IL-23-AVI [3]) was 3.88e+06 M⁻¹ s⁻¹ and the IC50 (IL-23-AVI [4]) was 240 nM.

B2: peptide 23–644 (free, chemically synthesized) (peptide)
peptide: HVPDPCWFGLLCDVLNS
notes: selected from a peptide phage library against IL-23; Two cysteines; also called FGL-containing peptide; source: synthetic peptide (CPC Scientific)
B2 showed a Kd (IL-23-AVI [3]) of 2620 nM, a koff (IL-23-AVI [3]) of 0.129 s⁻¹ and a kon (IL-23-AVI [3]) of 49300 M⁻¹ s⁻¹.

B3: peptide 23–652 (free, chemically synthesized) (peptide)
peptide: DTLTKSFCYFGTWCQMYGST
notes: selected from a peptide phage library against IL-23; Two cysteines; also called FGLT-containing peptide; FGL-containing peptide; source: synthetic peptide (CPC Scientific)
For B3, the Kd (IL-23-AVI [3]) was 71.8 nM, the koff (IL-23-AVI [3]) was 0.00263 s⁻¹ and the kon (IL-23-AVI [3]) was 36600 M⁻¹ s⁻¹.

B4: wild-type IL-23 displayed on yeast, Q9NPF7;P29460 K145A (protein)
chain 1: RAVPGGSSPAWTQCQQLSQKLCTLAWSAHPLVGHMDLREEGDEETTNDVPHIQCGDGCDPQGLRDNSQFCLQRIHQGLIFYEKLLGSDIFTGEPSLLPDSPVGQLHASLLGLSQLLQPEGHHWETQQIPSLSPSQPWQRLLLRFAILRSLQAFVAVAARVFAHGAATLSP
chain 2: IWELKKDVYVVELDWYPDAPGEMVVLTCDTPEEDGITWTLDQSSEVLGSGKTLTIQVKEFGDAGQYTCHKGGEVLSHSLLLLHKKEDGIWSTDILKDQKEPKNKTFLRCEAKNYSGRFTCWWLTTISTDLTFSVKSSRGSSDPQGVTCGAATLSAERVRGDNKEYEYSVECQEDSACPAAEESLPIEVMVDAVHKLKYENYTSSFFIRDIIKPDPPKNLQLKPLKNSRQVEVSWEYPDTWSTPHSYFSLTFCVQVQGKSKREKKDRVFTDKTSATVICRKNASISVRAQDRYYSSSWSEWASVPCS
For B4, the ratio to parent [5] was 0.18.
